Experimental data taken from patent US20090053203A1.

Molecular target: receptor for advanced glycated end products (RAGE) (human) (UniProt Q15109)
Test: cell-based or functional assay
Conditions: scale: relative to saline-treated controls

Sequence of receptor for advanced glycated end products (RAGE) (human) (Q15109 23-404): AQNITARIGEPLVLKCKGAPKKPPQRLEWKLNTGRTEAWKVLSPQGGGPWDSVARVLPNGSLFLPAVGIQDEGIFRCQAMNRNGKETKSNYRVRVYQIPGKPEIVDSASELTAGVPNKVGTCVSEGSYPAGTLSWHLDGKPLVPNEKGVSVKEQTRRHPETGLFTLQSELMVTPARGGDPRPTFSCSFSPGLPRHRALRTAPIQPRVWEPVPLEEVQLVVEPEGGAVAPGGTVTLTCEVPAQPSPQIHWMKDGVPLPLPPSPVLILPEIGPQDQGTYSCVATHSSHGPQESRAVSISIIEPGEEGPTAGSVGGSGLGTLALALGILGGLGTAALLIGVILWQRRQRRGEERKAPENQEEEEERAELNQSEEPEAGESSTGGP

In the case of glycated hemoglobin (ligand), the Phospbo-PKCa/bII (T638/641) (ELISA, 293 kidney cells, 4 hr) was 1.52, the Phospho-ATF2 (T71) (ELISA, 293 kidney cells, 4 hr) was 1.61 and the Phospho-Akt (S473) (ELISA, 293 kidney cells, 4 hr) was 1.92. It also gave a Phospho-Akt (T308) (ELISA, 293 kidney cells, 4 hr) of 1.06, a Phospho-ERK (T202/Y204) (ELISA, 293 kidney cells, 4 hr) of 1 and a Phospho-IRS1 (S307) (ELISA, 293 kidney cells, 4 hr) of 1.56. It also gave a Phospho-IRS2 (S731) (ELISA, 293 kidney cells, 4 hr) of 1.03, a Phospho-JNK (T183/Y185) (ELISA, 293 kidney cells, 4 hr) of 1.38 and a Phospho-PKCmu (S916) (ELISA, 293 kidney cells, 4 hr) of 0.95. The Total Akt1 (ELISA, 293 kidney cells, 4 hr) was 1.27, the Total Akt2 (ELISA, 293 kidney cells, 4 hr) was 0.81 and the Total IRS-1 (ELISA, 293 kidney cells, 4 hr) was 1.07. The Total IRS-2 (ELISA, 293 kidney cells, 4 hr) was 1.47 and the Total collagen-IV (ELISA, 293 kidney cells, 4 hr) was 1.34.
